Experimental data: the supplement of paper PMC9112550, “Optimization of the antimicrobial peptide Bac7 by deep mutational scanning” (BMC Biology, 2022)

What follows are sequences tested on Escherichia coli TOP10 (assay: shrunken log2 fold change of peptide-encoding DNA abundance (4.5 h post-induction vs induction); higher = less antimicrobial activity (less host growth inhibition)). Details: time post-induction: 4.5 h; library: site-saturation at positions 5, 18, 19, 20.
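Note: peptides expressed intracellularly from a pBAD plasmid library in pooled LB shake-flask culture, induced with 0.3% L-arabinose, DNA abundance read by NGS, three biological replicates, DESeq2 with apeglm shrinkage.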

Sequence | shrunken log2 fold change
RRIRDRPPRLPRPRPRPHSDPRP | -0.115
RRIRCRPPRLPRPRPRPYLNPRP | -1.32
RRIRKRPPRLPRPRPRPPDQPRP | 0.802
RRIRRRPPRLPRPRPRPYTPPRP | -0.225
RRIRCRPPRLPRPRPRPILDPRP | -0.122
RRIRTRPPRLPRPRPRPCKLPRP | -0.858
RRIRCRPPRLPRPRPRPIVLPRP | -0.456
RRIRFRPPRLPRPRPRPQYPPRP | 0.041
RRIRMRPPRLPRPRPRPHDTPRP | 0.048
RRIRCRPPRLPRPRPRPMAYPRP | -0.00456
RRIRKRPPRLPRPRPRPPDWPRP | 1.48
RRIRRRPPRLPRPRPRPKDFPRP | -0.123
RRIRNRPPRLPRPRPRPAFAPRP | 0.158
RRIRWRPPRLPRPRPRPCKIPRP | -0.114
RRIRARPPRLPRPRPRPCAFPRP | 0.303
RRIRVRPPRLPRPRPRPKLNPRP | -0.212
RRIRERPPRLPRPRPRPGHCPRP | 0.0591
RRIRIRPPRLPRPRPRPHQLPRP | -0.52
RRIRWRPPRLPRPRPRPEMKPRP | 0.271
RRIRWRPPRLPRPRPRPRTAPRP | 0.564
RRIRCRPPRLPRPRPRPAFMPRP | 0.117
RRIRIRPPRLPRPRPRPVTGPRP | -0.37
RRIRCRPPRLPRPRPRPDLWPRP | 0.134
RRIRERPPRLPRPRPRPSGDPRP | -0.253
RRIRERPPRLPRPRPRPVFGPRP | -0.0574

Sequence | shrunken log2 fold change
RRIRWRPPRLPRPRPRPWPEPRP | 0.167
RRIRFRPPRLPRPRPRPEWKPRP | 0.0211
RRIRERPPRLPRPRPRPAHHPRP | -0.338
RRIRARPPRLPRPRPRPCVDPRP | 0.581
RRIRIRPPRLPRPRPRPAERPRP | 0.0773
RRIRGRPPRLPRPRPRPNNHPRP | -0.15
RRIRTRPPRLPRPRPRPEHHPRP | -0.203
RRIRVRPPRLPRPRPRPRMIPRP | 0.224
RRIRMRPPRLPRPRPRPLWQPRP | 0.304
RRIRRRPPRLPRPRPRPLNKPRP | 0.0514
RRIRRRPPRLPRPRPRPTGDPRP | 0.0418
RRIRCRPPRLPRPRPRPVPDPRP | -0.0739
RRIRMRPPRLPRPRPRPCAPPRP | 0.478
RRIRARPPRLPRPRPRPMGTPRP | 0.304
RRIRSRPPRLPRPRPRPTQLPRP | 0.249
RRIRRRPPRLPRPRPRPPDIPRP | -0.0254
RRIRMRPPRLPRPRPRPRGYPRP | 0.0597
RRIRVRPPRLPRPRPRPFIEPRP | -0.468
RRIRGRPPRLPRPRPRPMYRPRP | 0.115
RRIRKRPPRLPRPRPRPMKFPRP | -0.0265
RRIRWRPPRLPRPRPRPPEPPRP | -0.011
RRIRKRPPRLPRPRPRPAMPPRP | 0.788
RRIRLRPPRLPRPRPRPSWCPRP | -0.277
RRIRFRPPRLPRPRPRPPTVPRP | 0.499
RRIRHRPPRLPRPRPRPLCIPRP | -0.165

Sequence | shrunken log2 fold change
RRIRDRPPRLPRPRPRPVQNPRP | 0.577
RRIRGRPPRLPRPRPRPAKVPRP | 0.431
RRIRLRPPRLPRPRPRPQGVPRP | -0.0316
RRIRIRPPRLPRPRPRPQRWPRP | 0.304
RRIRNRPPRLPRPRPRPCEFPRP | -0.398
RRIRDRPPRLPRPRPRPYVIPRP | -0.116
RRIRARPPRLPRPRPRPVIGPRP | 0.535
RRIRLRPPRLPRPRPRPPVWPRP | 0.591
RRIRWRPPRLPRPRPRPQVVPRP | -0.00458
RRIRARPPRLPRPRPRPMGWPRP | 0.468
RRIRWRPPRLPRPRPRPHLTPRP | -0.19
RRIRGRPPRLPRPRPRPQSKPRP | 0.348
RRIRLRPPRLPRPRPRPTEGPRP | 0.166
RRIRWRPPRLPRPRPRPLHAPRP | 0.499
RRIRGRPPRLPRPRPRPYCVPRP | -0.237
RRIRGRPPRLPRPRPRPWYEPRP | -0.14
RRIRIRPPRLPRPRPRPGMPPRP | -0.0857
RRIRCRPPRLPRPRPRPRIQPRP | -0.196
RRIRARPPRLPRPRPRPAIEPRP | 0.396
RRIRTRPPRLPRPRPRPKQSPRP | 0.113
RRIRTRPPRLPRPRPRPGNCPRP | 0.0747
RRIRTRPPRLPRPRPRPAMQPRP | -0.00933
RRIRARPPRLPRPRPRPDDIPRP | 0.0386
RRIRHRPPRLPRPRPRPITYPRP | -0.184
RRIRKRPPRLPRPRPRPMHIPRP | 0.078
